Experimental data from article PMC6686035.
pKd: −log10 of the molar value.

Key:
[1] = target: CsrA-His6 (Escherichia coli) (UniProt P69913); assay: EMSA; conditions: EMSA: 0.5 nM RNA, 10 mM MgCl2, 100 mM KCl, 32.5 ng yeast RNA, 20 mM DTT, 7.5% glycerol, 4 U SUPERasin, 37 C 30 min (pH not stated), footprint: 2 nM RNA
[2] = target: CsrA-His6 (Escherichia coli) (UniProt P69913); assay: RNase T1 footprinting; conditions: EMSA: 0.5 nM RNA, 10 mM MgCl2, 100 mM KCl, 32.5 ng yeast RNA, 20 mM DTT, 7.5% glycerol, 4 U SUPERasin, 37 C 30 min (pH not stated), footprint: 2 nM RNA

Chain of CsrA-His6 (Escherichia coli) (P69913 whole entry): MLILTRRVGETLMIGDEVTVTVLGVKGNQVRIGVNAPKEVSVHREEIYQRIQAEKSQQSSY

Substance: ftnB EMSA transcript
- pKd [1]: 7.89

Substance: bfr EMSA transcript
- pKd ([1]; 10 mM Mg2+, apparent KD, cooperative equation, single shift): 7.57

Substance: GAAGAUCAUCGUCAGAAUUGACUCCACGAUCACAUUUCGGACCGGCAGAAAGGAAUUAUUCUGCAAACAGUAAUUAUGGUGUUUUGAUUUAUCUUGCACCUCUCCACUUCUGGAUAUAAGGAUAUUAGGU [ftnB EMSA transcript]
- pKd [1]: 7.89

Substance: GGGAUCAUCGUCAGAAUUGACUCCACGAUCACAUUUCGGACCGGCAGAAAGGAAUUAUUCUGCAAACAGUAAUUAUGGUGUUUUGAUUUAUCUUGCACCUCUCCACUUCUGGAUAUAAGGAUAUUAGGUAUGGCAACCGCUGGAAUGCUUCUCAAGGAUCC [ftnB footprint RNA (+1 to +152)]
- binding [2]: binds

Substance: GGGUGGAAGCGAAGGAGUCAAAAAAUGAAAGGUGAUACUAAAGUUAUAAAUUAUCUCAACAAACUGUUGGGAAAUGAGCUUGU [bfr EMSA transcript]
- pKd [1]: 7.57
